The Human Domainome abundance scans (Beltran et al. 2025)

B1: Nucleosome-remodeling factor subunit BPTF, residues 2862 to 2918; numbered along this chain, Q12830 (parent)
chain: TKKDTKLYCICKTPYDESKFYIGCDRCQNWYHGRCVGILQSEAELIDEYVCPQCQST

Variants of: B1
Assay: abundance fitness (aPCA) (normalised: wild type 0, dead -1); higher = more abundant; growth selection in yeast, the domain comes from the species named
Conditions: Homo sapiens

Abundance fitness of substitutions, site by site:
R26: V -0.18 | W -0.278 | Y -0.11
C27: A -1.05 | D -0.962 | E -0.785 | F -0.843 | G -0.758 | H -1.11 | I -1.15 | K -0.822 | L -1.04 | M -0.816 | N -0.674 | P -1.08 | Q -0.956 | R -0.915 | S -0.811 | T -0.871 | V -0.803 | W -0.907 | Y -0.844
Q28: A -0.14 | C 0.126 | D -0.079 | E -0.072 | F -0.221 | G -0.028 | H 0.009 | I -0.342 | K 0.084 | M -0.096 | N -0.133 | P -0.193 | R -0.081 | S 0.048 | T -0.081 | W -0.236
N29: A 0.06 | C -0.353 | E -0.328 | F -0.307 | G -0.068 | H -0.062 | I -0.431 | K -0.124 | L -0.198 | M -0.1 | Q 0.089 | R -0.061 | S -0.047 | T -0.191 | V -0.064 | Y -0.376
W30: A 0.09 | C -0.123 | D -0.097 | F 0.115 | G -0.116 | H 0.004 | I -0.033 | K 0.163 | L 0.127 | M 0.037 | N -0.159 | P -0.155 | R 0.142 | S -0.009 | T 0.095 | Y 0.083
Y31: C -0.206 | D -1.01 | E -0.772 | F 0.01 | G -0.804 | H -0.592 | K -0.649 | L -0.279 | M -0.412 | N -0.573 | P -0.787 | Q -0.706 | R -0.79 | S -0.693 | T -0.723 | V -0.341 | W -0.527
H32: A -0.832 | D -0.9 | E -0.929 | F -0.891 | G -0.831 | I -1 | K -0.979 | L -1.02 | M -0.944 | N -0.879 | P -0.95 | Q -0.898 | R -0.808 | S -0.797 | T -1.1 | W -1.1 | Y -1
G33: A -0.007 | C 0.196 | D -0.229 | F -0.192 | I 0.011 | K -0.271 | M -0.446 | N -0.357 | P 0.053 | Q 0 | S -0.2 | T -0.238 | V -0.098 | W -0.445 | Y 0.053
R34: A 0.026 | D 0.105 | E 0.005 | F -0.258 | H 0.035 | I -0.164 | K 0.109 | M -0.251 | N 0.075 | P -0.144 | Q 0.01 | S 0.051 | T -0.065 | W -0.363 | Y -0.107
C35: A -0.827 | D -0.931 | E -0.834 | F -0.92 | G -0.958 | H -0.764 | K -0.915 | L -0.81 | M -0.827 | N -1.07 | P -0.74 | Q -0.804 | R -1.01 | S -0.75 | T -0.933 | V -1.06 | W -0.981 | Y -0.878
V36: A -0.565 | C -0.572 | D -0.801 | F -0.832 | G -0.863 | H -0.785 | I -0.109 | K -0.531 | L -0.123 | M -0.381 | N -0.393 | P -0.983 | Q -0.862 | S -0.669 | W -0.927 | Y -0.957
G37: A -0.277 | C -0.379 | E -0.23 | F -0.418 | H -0.157 | I -0.882 | K -0.009 | L -0.411 | M -0.359 | N -0.158 | P -0.99 | Q -0.216 | R -0.207 | S -0.074 | W -0.681 | Y -0.418
I38: A -0.452 | C -0.582 | D -0.432 | E -0.44 | F -0.182 | G -0.489 | H -0.342 | K -0.278 | L -0.014 | M -0.084 | N -0.547 | P -0.428 | R -0.234 | T -0.146 | W -0.46 | Y -0.059
L39: A -0.306 | D -0.062 | E 0.225 | F -0.006 | G -0.116 | P 0.102 | R -0.033 | S -0.024 | T -0.08 | V -0.286 | W -0.326
Q40: A -0.072 | C -0.12 | D -0.126 | E -0.036 | F -0.201 | G -0.062 | H 0.002 | I -0.378 | K -0.214 | L -0.282 | M -0.244 | N -0.296 | P -0.2 | S -0.049 | T -0.127 | V -0.19 | W -0.371 | Y -0.306
S41: A -0.146 | C -0.213 | D -0.071 | E 0.017 | F -0.173 | G -0.105 | H -0.152 | I -0.507 | K -0.015 | L -0.198 | M -0.137 | N 0.038 | P -0.106 | Q -0.07 | R 0.019 | T 0.069 | W -0.207 | Y -0.132
E42: A -0.099 | C -0.129 | D -0.003 | F -0.274 | G -0.294 | K -0.083 | L -0.468 | M -0.288 | N -0.279 | P -0.342 | Q -0.021 | R -0.403 | S -0.205 | T -0.37 | V -0.269 | W -0.539 | Y -0.304
A43: D -0.392 | E -0.226 | F -0.17 | G -0.028 | H 0.013 | I 0.016 | K -0.025 | L -0.144 | M -0.13 | N -0.251 | P -0.167 | Q 0 | R -0.076 | S -0.119 | T -0.148 | V -0.036 | W -0.182 | Y -0.074
E44: A -0.001 | C -0.137 | D 0.027 | F -0.089 | I -0.193 | K -0.018 | L -0.11 | M -0.089 | N -0.116 | P -0.097 | Q -0.086 | R -0.045 | S -0.048 | T -0.165 | V -0.123 | W -0.408
L45: A -0.111 | D -0.04 | G -0.053 | H 0.101 | I -0.128 | K -0.018 | M -0.219 | N -0.017 | P -0.309 | R 0.04 | S -0.075 | T -0.03 | V -0.001 | W -0.185 | Y -0.179
I46: A -0.176 | C -0.483 | D -0.365 | E -0.228 | F -0.163 | G -0.254 | H -0.11 | L -0.027 | M -0.037 | N -0.098 | P -0.03 | Q -0.058 | R -0.045 | S -0.095 | T 0 | V -0.073 | W -0.154 | Y -0.282
D47: A 0.003 | C -0.043 | E 0.101
